Target: T1, human CD19 on CD19(+) NALM6 acute lymphoid leukemia cells (human, UniProt P15391 20-556)
T1 sequence: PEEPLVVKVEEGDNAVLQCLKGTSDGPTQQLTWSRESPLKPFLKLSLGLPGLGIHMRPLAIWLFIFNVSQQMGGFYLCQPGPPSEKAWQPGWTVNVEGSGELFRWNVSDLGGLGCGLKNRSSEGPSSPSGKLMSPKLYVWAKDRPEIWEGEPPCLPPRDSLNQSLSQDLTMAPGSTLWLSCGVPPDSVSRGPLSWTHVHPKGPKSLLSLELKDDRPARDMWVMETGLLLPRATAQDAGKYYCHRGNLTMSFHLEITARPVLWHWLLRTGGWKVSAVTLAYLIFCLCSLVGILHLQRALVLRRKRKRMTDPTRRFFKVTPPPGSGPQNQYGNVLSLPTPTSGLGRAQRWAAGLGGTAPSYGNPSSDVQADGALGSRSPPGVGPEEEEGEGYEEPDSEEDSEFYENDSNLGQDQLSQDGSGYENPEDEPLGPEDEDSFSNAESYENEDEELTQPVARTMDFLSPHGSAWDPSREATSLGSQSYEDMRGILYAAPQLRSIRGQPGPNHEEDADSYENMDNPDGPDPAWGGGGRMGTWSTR
Test: cell-based or functional assay

B1: CD19-BsAb BC250 (hFMC63 VL-2/VH-1b x CD3 IgG-scFv bispecific antibody) (bispecific antibody)
heavy: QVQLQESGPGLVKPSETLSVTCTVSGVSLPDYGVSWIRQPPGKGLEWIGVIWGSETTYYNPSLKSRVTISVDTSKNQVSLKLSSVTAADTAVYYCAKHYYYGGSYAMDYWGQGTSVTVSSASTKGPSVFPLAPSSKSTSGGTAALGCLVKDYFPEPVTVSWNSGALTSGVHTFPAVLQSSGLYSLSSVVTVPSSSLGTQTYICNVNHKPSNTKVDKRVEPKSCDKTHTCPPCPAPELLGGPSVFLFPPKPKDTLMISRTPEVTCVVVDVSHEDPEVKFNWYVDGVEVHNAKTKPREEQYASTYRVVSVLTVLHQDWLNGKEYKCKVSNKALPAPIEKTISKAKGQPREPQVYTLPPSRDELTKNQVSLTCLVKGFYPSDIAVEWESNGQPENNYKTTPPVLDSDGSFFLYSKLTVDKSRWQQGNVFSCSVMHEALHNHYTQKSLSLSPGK
light: DIQMTQSPSSLSASVGDRVTITCQASQDISKYLNWYQQKPGKAVKLLIYHTSRLHSGVPSRFSGSGSGTDYTLTISSLQPEDIATYFCQQGNTLPYTFGGGTKLEITRTVAAPSVFIFPPSDEQLKSGTASVVCLLNNFYPREAKVQWKVDNALQSGNSQESVTEQDSKDSTYSLSSTLTLSKADYEKHKVYACEVTHQGLSSPVTKSFNRGECTSGGGGSGGGGSGGGGSQVQLVQSGGGVVQPGRSLRLSCKASGYTFTRYTMHWVRQAPGKCLEWIGYINPSRGYTNYNQKFKDRFTISRDNSKNTAFLQMDSLRPEDTGVYFCARYYDDHYSLDYWGQGTPVTVSSGGGGSGGGGSGGGGSGGGGSGGGGSGGGGSDIQMTQSPSSLSASVGDRVTITCSASSSVSYMNWYQQTPGKAPKRWIYDTSKLASGVPSRFSGSGSGTDYTFTISSLQPEDIATYYCQQWSSNPFTFGCGTKLQITR
  EC50 for cell lysis of NALM6 cells (standard 4-hour 51Cr release assay with activated T cells): 0.042 pM
